{
  "source": "patent US20260258084A1",
  "about": "“New Peptides as Selective IL-23 Receptor Antagonists” (Sanofi, priority 2022, published 2026)",
  "binders": {"B1": {"name": "Compound of SEQ ID NO: 11 (peptide)", "peptide": "[Dad]CNTWQC[Phe(4-OMe)][2Nal][Aib]KNN-NH2", "modifications": "lactam (positions not given here); disulfide 2-7; not fully specified (bridges); printed as Dad(§1)-C(@2)-N-T-W-Q-C(@2)-Yme-Nal-Aib-K(§1)-N—N—NH2"}, "B2": {"name": "Compound of SEQ ID NO: 12 (peptide)", "peptide": "[Nmapt]CKWQC[AEF][2Nal][Aib]ENN-NH2", "modifications": "lactam N-10; disulfide 2-6; not fully specified (residue 3); printed as Nmapt(§1)-C(§3)(@2)-K[aAc](@3)-W-Q-C(@2)-Yae-Nal-Aib-E(§1)-N—N—NH2; reading uncertain; also: K[aAc]: Cys2 bonded to epsilon-NH2 of acetylated Lys3, acetyl presumably on alpha-amine"}, "B3": {"name": "Compound of SEQ ID NO: 13 (peptide)", "peptide": "[Nmapt]CKWQC[AEF][2Nal][Thp]ENN-NH2", "modifications": "lactam N-10; disulfide 2-6; not fully specified (residue 3); printed as Nmapt(§1)-C(§3)(@2)-K[aAc](@3)-W-Q-C(@2)-Yae-Nal-Thp-E(§1)-N—N—NH2; reading uncertain; also: K[aAc]: Cys2 bonded to epsilon-NH2 of acetylated Lys3, acetyl presumably on alpha-amine"}, "B4": {"name": "Compound of SEQ ID NO: 14 (peptide)", "peptide": "[Nmapt]CKWQC[AEF][2Nal][αMeL]ENN-NH2", "modifications": "lactam N-10; disulfide 2-6; not fully specified (residue 3); printed as Nmapt(§1)-C(§3)(@2)-K[aAc](@3)-W-Q-C(@2)-Yae-Nal-Mle-E(§1)-N—N—NH2; reading uncertain; also: K[aAc]: Cys2 bonded to epsilon-NH2 of acetylated Lys3, acetyl presumably on alpha-amine"}, "B5": {"name": "Compound of SEQ ID NO: 15 (peptide)", "peptide": "[Nmapt]CKWQC[AEF][2Nal][Aib]ENG-NH2", "modifications": "lactam N-10; disulfide 2-6; not fully specified (residue 3); printed as Nmapt(§1)-C(§3)(@2)-K[aAc](@3)-W-Q-C(@2)-Yae-Nal-Aib-E(§1)-N-G-NH2; reading uncertain; also: K3 acetylated (K[aAc]), acetyl site not given here, ε-NH2 takes the Cys2 bond"}, "B6": {"name": "Compound of SEQ ID NO: 16 (peptide)", "peptide": "[Nmapt]CKWQC[AEF][2Nal][Thp]ENG-NH2", "modifications": "lactam N-10; disulfide 2-6; not fully specified (residue 3); printed as Nmapt(§1)-C(§3)(@2)-K[aAc](@3)-W-Q-C(@2)-Yae-Nal-Thp-E(§1)-N-G-NH2; reading uncertain; also: K3 acetylated (K[aAc]), acetyl site not given here, ε-NH2 takes the Cys2 bond"}, "B7": {"name": "Compound of SEQ ID NO: 17 (peptide)", "peptide": "[Nmapt]CKWQC[AEF][2Nal][Thp]EAG-NH2", "modifications": "lactam N-10; disulfide 2-6; not fully specified (residue 3); printed as Nmapt(§1)-C(§3)(@2)-K[aAc](@3)-W-Q-C(@2)-Yae-Nal-Thp-E(§1)-A-G-NH2; reading uncertain; also: K3 acetylated (K[aAc]), acetyl site not given here, ε-NH2 takes the Cys2 bond"}, "B8": {"name": "Compound of SEQ ID NO: 18 (peptide)", "peptide": "[Nmapt]CKWQC[AEF][2Nal][αMeL]EAG-NH2", "modifications": "lactam N-10; disulfide 2-6; not fully specified (residue 3); printed as Nmapt(§1)-C(§3)(@2)-K[aAc](@3)-W-Q-C(@2)-Yae-Nal-Mle-E(§1)-A-G-NH2; reading uncertain; also: K3 acetylated (K[aAc]), acetyl site not given here, ε-NH2 takes the Cys2 bond"}, "B9": {"name": "Compound of SEQ ID NO: 19 (peptide)", "peptide": "[Nmapt]CKWQC[AEF][2Nal][Aib]EA[dL]-NH2", "modifications": "lactam N-10; disulfide 2-6; not fully specified (residue 3); printed as Nmapt(§1)-C(§3)(@2)-K[aAc](@3)-W-Q-C(@2)-Yae-Nal-Aib-E(§1)-A-(D-Leu)-NH2; reading uncertain; also: K3 acetylated (K[aAc]), acetyl site not given here, ε-NH2 takes the Cys2 bond"}, "B10": {"name": "Compound of SEQ ID NO: 2 (peptide)", "peptide": "[Ahx]CNTWQC[Phe(4-OMe)][2Nal][Aib]ENN-NH2", "modifications": "lactam N-11; disulfide 2-7", "SMILES": "COc1ccc(C[C@@H]2NC(=O)[C@@H]3CSSC[C@H](NC(=O)CCCCCNC(=O)CC[C@@H](C(=O)N[C@@H](CC(N)=O)C(=O)N[C@@H](CC(N)=O)C(N)=O)NC(=O)C(C)(C)NC(=O)[C@H](Cc4ccc5ccccc5c4)NC2=O)C(=O)N[C@@H](CC(N)=O)C(=O)N[C@@H]([C@@H](C)O)C(=O)N[C@@H](Cc2c[nH]c4ccccc24)C(=O)N[C@@H](CCC(N)=O)C(=O)N3)cc1"}, "B11": {"name": "Compound of SEQ ID NO: 20 (peptide)", "peptide": "[Ava]CNT[Trp(7-Me)]K(Ac)C[Yde][2Nal][Aib]ENH-NH2", "modifications": "lactam N-11; disulfide 2-7", "SMILES": "CC(=O)NCCCC[C@@H]1NC(=O)[C@H](Cc2c[nH]c3c(C)cccc23)NC(=O)[C@H]([C@@H](C)O)NC(=O)[C@H](CC(N)=O)NC(=O)[C@@H]2CSSC[C@H](NC1=O)C(=O)N[C@@H](Cc1ccc(OCCN(C)C)cc1)C(=O)N[C@@H](Cc1ccc3ccccc3c1)C(=O)NC(C)(C)C(=O)N[C@H](C(=O)N[C@@H](CC(N)=O)C(=O)N[C@@H](Cc1c[nH]cn1)C(N)=O)CCC(=O)NCCCCC(=O)N2"}, "B12": {"name": "Compound of SEQ ID NO: 21 (peptide)", "peptide": "[Ava]CNT[Trp(7-Me)]K(Ac)C[Yde][2Nal][Thp]ENH-NH2", "modifications": "lactam N-11; disulfide 2-7", "SMILES": "CC(=O)NCCCC[C@@H]1NC(=O)[C@H](Cc2c[nH]c3c(C)cccc23)NC(=O)[C@H]([C@@H](C)O)NC(=O)[C@H](CC(N)=O)NC(=O)[C@@H]2CSSC[C@H](NC1=O)C(=O)N[C@@H](Cc1ccc(OCCN(C)C)cc1)C(=O)N[C@@H](Cc1ccc3ccccc3c1)C(=O)NC1(CCOCC1)C(=O)N[C@H](C(=O)N[C@@H](CC(N)=O)C(=O)N[C@@H](Cc1c[nH]cn1)C(N)=O)CCC(=O)NCCCCC(=O)N2"}, "B13": {"name": "Compound of SEQ ID NO: 22 (peptide)", "peptide": "[Ava]CNT[Trp(7-Me)]K(Ac)C[Yde][2Nal][αMeL]ENH-NH2", "modifications": "lactam N-11; disulfide 2-7", "SMILES": "CC(=O)NCCCC[C@@H]1NC(=O)[C@H](Cc2c[nH]c3c(C)cccc23)NC(=O)[C@H]([C@@H](C)O)NC(=O)[C@H](CC(N)=O)NC(=O)[C@@H]2CSSC[C@H](NC1=O)C(=O)N[C@@H](Cc1ccc(OCCN(C)C)cc1)C(=O)N[C@@H](Cc1ccc3ccccc3c1)C(=O)N[C@@](C)(CC(C)C)C(=O)N[C@H](C(=O)N[C@@H](CC(N)=O)C(=O)N[C@@H](Cc1c[nH]cn1)C(N)=O)CCC(=O)NCCCCC(=O)N2"}, "B14": {"name": "Compound of SEQ ID NO: 24 (peptide)", "peptide": "[Ava]CNT[Trp(7-Me)]LC[Yde][2Nal][Thp]EN[3Pal][Sar]-NH2", "modifications": "lactam N-11; disulfide 2-7", "SMILES": "Cc1cccc2c(C[C@@H]3NC(=O)[C@H]([C@@H](C)O)NC(=O)[C@H](CC(N)=O)NC(=O)[C@@H]4CSSC[C@H](NC(=O)[C@H](CC(C)C)NC3=O)C(=O)N[C@@H](Cc3ccc(OCCN(C)C)cc3)C(=O)N[C@@H](Cc3ccc5ccccc5c3)C(=O)NC3(CCOCC3)C(=O)N[C@H](C(=O)N[C@@H](CC(N)=O)C(=O)N[C@@H](Cc3cccnc3)C(=O)N(C)CC(N)=O)CCC(=O)NCCCCC(=O)N4)c[nH]c12"}, "B15": {"name": "Compound of SEQ ID NO: 26 (peptide)", "peptide": "[Ava]CNTWQC[Yde][2Nal][Thp]ENN-NH2", "modifications": "lactam N-11; disulfide 2-7", "SMILES": "C[C@@H](O)[C@@H]1NC(=O)[C@H](CC(N)=O)NC(=O)[C@@H]2CSSC[C@H](NC(=O)[C@H](CCC(N)=O)NC(=O)[C@H](Cc3c[nH]c4ccccc34)NC1=O)C(=O)N[C@@H](Cc1ccc(OCCN(C)C)cc1)C(=O)N[C@@H](Cc1ccc3ccccc3c1)C(=O)NC1(CCOCC1)C(=O)N[C@H](C(=O)N[C@@H](CC(N)=O)C(=O)N[C@@H](CC(N)=O)C(N)=O)CCC(=O)NCCCCC(=O)N2"}},
  "note": "Starred links: 1 amine or outer side, 2 acyl side, 3 side chain; linkers in the order of their positions; H or OH if unused. Positions of bridges follow the written chain, without caps; N, C: chain ends. Non-standard residues stand in square brackets, D forms with d. No end group written: not given here. Yde = (2S)-2-amino-3-[4-[2-(dimethylamino)ethoxy]phenyl]propanoic acid, CN(C)CCOc1ccc(C[C@H](N[*:1])C(=O)[*:2])cc1; Phe(4-OMe) = COc1ccc(C[C@H](N[*:1])C(=O)[*:2])cc1; Trp(7-Me) = Cc1cccc2c(C[C@H](N)C(=O)O)c[nH]c12; 2Nal = N[C@@H](Cc1ccc2ccccc2c1)C(=O)O; AEF = NCCOc1ccc(C[C@H](N)C(=O)O)cc1; 3Pal = N[C@@H](Cc1cccnc1)C(=O)O; Dad = desamino-aspartamic acid; Lys(Me) = CNCCCC[C@H](N)C(=O)O; αMeL = CC(C)C[C@](C)(N)C(=O)O; Nmapt = not defined here; Thp = NC1(C(=O)O)CCOCC1; Aib = CC(C)(N)C(=O)O; Ahx = NCCCCCC(=O)O; Ava = NCCCCC(=O)O; Sar = CNCC(=O)O",
  "data": [
    {"biological_target": "T1, IL-23 receptor on the surface of HEK-Blue IL-23 cells (UniProt Q5VWK5 24-629, limits assumed)", "T1 sequence (looked up)": "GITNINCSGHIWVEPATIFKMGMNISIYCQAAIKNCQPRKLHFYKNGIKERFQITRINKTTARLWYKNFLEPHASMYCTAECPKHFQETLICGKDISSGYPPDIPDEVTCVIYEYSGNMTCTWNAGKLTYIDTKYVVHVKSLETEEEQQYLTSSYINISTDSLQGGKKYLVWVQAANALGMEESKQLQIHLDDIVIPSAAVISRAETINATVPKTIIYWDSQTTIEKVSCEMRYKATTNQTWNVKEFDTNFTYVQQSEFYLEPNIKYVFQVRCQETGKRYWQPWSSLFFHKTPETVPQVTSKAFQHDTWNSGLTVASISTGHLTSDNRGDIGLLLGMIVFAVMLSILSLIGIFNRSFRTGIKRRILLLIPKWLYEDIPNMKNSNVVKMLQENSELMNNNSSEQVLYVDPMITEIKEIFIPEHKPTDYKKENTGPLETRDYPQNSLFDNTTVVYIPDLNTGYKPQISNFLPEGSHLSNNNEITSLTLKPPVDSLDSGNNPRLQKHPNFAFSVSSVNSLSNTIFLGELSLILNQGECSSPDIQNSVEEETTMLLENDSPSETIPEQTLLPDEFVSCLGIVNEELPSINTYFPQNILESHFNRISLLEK", "test": "cell-based or functional assay", "units": {"pSTAT3 (nM)": "nM"}, "values": [
      {"binder": "B1", "pSTAT3 (nM)": 53.5},
      {"binder": "B2", "pSTAT3 (nM)": 27.9},
      {"binder": "B3", "pSTAT3 (nM)": 32},
      {"binder": "B4", "pSTAT3 (nM)": 18.7},
      {"binder": "B5", "pSTAT3 (nM)": 29.2},
      {"binder": "B6", "pSTAT3 (nM)": 32.1},
      {"binder": "B7", "pSTAT3 (nM)": 62},
      {"binder": "B8", "pSTAT3 (nM)": 69.5},
      {"binder": "B9", "pSTAT3 (nM)": 88.3},
      {"binder": "B10", "pSTAT3 (nM)": 54},
      {"binder": "B11", "pSTAT3 (nM)": 3.12},
      {"binder": "B12", "pSTAT3 (nM)": 2.67},
      {"binder": "B13", "pSTAT3 (nM)": 1.37},
      {"binder": "[Dad]CNT[Trp(7-Me)]K(Ac)C[Yde][2Nal][αMeL]KNH-NH2 (lactam N-11; disulfide 2-7)", "note": "[Compound of SEQ ID NO: 23]", "pSTAT3 (nM)": 3.32},
      {"binder": "B14", "pSTAT3 (nM)": 0.59},
      {"binder": "[Dad]CNTWQC[Yde][2Nal][Aib][Lys(Me)]NN-NH2 (lactam N-11; disulfide 2-7)", "note": "[Compound of SEQ ID NO: 25]", "pSTAT3 (nM)": 39.2},
      {"binder": "B15", "pSTAT3 (nM)": 3.37}
    ]}
  ]
}
